Measured values: patent US20110081339A1 (Amgen, published 2011)
Like-named read-outs stand apart in the source and are kept apart here.

What was measured:
[1] = biological target: T1, cynomolgus IL-17RA expressed on cells (cynomolgus); assay: FACS; inhibition of biotin-huIL-17A binding; MFI
T1 construct: whole, on cells; CHO cell line over-expressing cynomolgus IL-17RA (FACS); also called cyno IL-17RA; CHO-cynoIL-17RA

[2] = biological target: T1, cynomolgus IL-17RA expressed on cells; assay: FACS; inhibition of biotin-huIL-17A binding; MFI; remark: listed apart in the source
[3] = biological target: T1, cynomolgus IL-17RA expressed on cells; assay: cell-based or functional assay
[4] = biological target: T1, cynomolgus IL-17RA expressed on cells; assay: FACS; inhibition of biotin-huIL-17A binding; MFI; remark: listed apart in the source
Text: The anti-IL-17RA antibodies were characterized. […] Anti-IL-17RA non-clonal hybridomas were selected for sub-cloning based on their performance in the CHO-IL-17RA FACS assay and HFF bioassay.

[5] = biological target: Human IL-17RA full-length expressed on the surface of cells (human, UniProt Q96F46 33-866); assay: cell-based or functional assay

Row | Binder | MFI [1] | MFI [4] | also measured
1 | IL-17RA mAb (AMH1/AML1) (antibody, V domains shown, also called AM-1; AML1/AMH1) VH: QVQLQESGPGLVKPSETLSLTCTVSGGSISNYYWNWIRQSPGKGLEWIGDIYYSGSTNYNPSLKSRVTISVDTSKNQFSLKLSSVTTADTAVYYCARDGELANYYGSGSYQFYYYYGMDVWGQGTTVTVSS VL: DILMTQSPSSLSASVGDRVTITCRASQGIRNDLGWYQQKPGKAPKRLIYAASSLQSGVPSRFSGSGSGTEFTLTISSLQPEDFATYYCLQHNSNPFTFGPGTKVDIK | 11 | – | –
2 | IL-17RA mAb (AMH5/AML5) (antibody, V domains shown, also called AM-5; AML5/AMH5) VH: QVQLQESGPGLVKPSETLPLTCTVSGGSIRSYYWSWIRQPAGKGLEWIGRIYRSGNTIYNPSLKSRVTMSIDTSKNQFSLTLSSVTAADTAVYYCARENYSESSGLYYYYGMDVWGQGTTVTVSS VL: DIQMTQSPSSLSASVGDRVTITCRASQGIRNDLGWYQQKPGKAPKRLIYAASSFQSGVPSRFSGSGSGTGFTLTISSLQPEDFATYYCLQHNSYPPTFGQGTKVEIK | 9 | – | –
3 | IL-17RA mAb (AMH11/AML11) (antibody, V domains shown, also called AM-11; AML11/AMH11) VH: QVQLVESGGGVVQPGRSLRLSCATSGITFSSYGMHWVRQAPGKGLEWVAVIWYDGSNKYYADSVKGRFTISRDNSKNTLYLQMNSLRAEDTAVYYCARDTKDYWGQGTLVTVSS VL: EIVMTQSPATLSVSPGERATLSCRASQSVSSNLAWYQQKPGQAPRLLIYGASTRAAGIPARFSGGGSGTAFTLTISNLQSEDFAVYYCQHYINWPKWTFGQGTKVDIK | 9 | – | –
4 | IL-17RA mAb (AMH21/AML21) (antibody, IgG2, V domains shown, From IgG2 XenoMouse mice; also called AM-21; AML21/AMH21) VH: EVQLVESGGGSVQPGGSLRLSCAASGFTFSSYSMNWVRQAPGKGLEWVSIISSRSSIIHYADSVKGRFTISRDNAKNSLYLQMNSLRDEDTAVYYCARPKVGGGMDVWGQGTTVTVSS VL: DIQMTQSPSSLSASVGDRVTITCRASQGISNYLAWYQQKPGKFPELLIYAASTLQSGVPSRFSGSGSGTDFTLTISSLQPEDVATYYCQKYNRAPFTFGPGTKVDIK | – | – | MFI [2]: 6
5 | IL-17RA human mAb having the heavy and light chain variable sequences (AMH14/AML14) (antibody, IgG2, V domains shown, Fully human, from IgG2 XenoMouse mice; Only variable domains are tied to it in the description; also called AM-14; AML14/AMH14) VH: QVQLVQSGAEVKKPGASVKVSCKASGYTFTRYGISWVRQAPGQGLEWMGWISTYSGNTNYAQKLQGRVTMTTDTSTSTAYMELRSLRSDDTAVYYCARRQLYFDYWGQGTLVTVSS VL: EIVMTQSPATLSVSPGERATLSCRASQSVSSNLAWFQQKPGQAPRPLIYDASTRATGVPARFSGSGSGTDFTLTISSLQSEDFAVYYCQQYDNWPLTFGGGTKVEIK | – | – | IC50, cynomolgous IL-17A-induced IL-6 production from JTC-12 cells [3]: ~1.2 nM; MFI [2]: 10
6 | IL-17RA mAb (AMH12/AML12) (antibody, IgG2, V domains shown, From IgG2 XenoMouse mice; also called AM-12; AML12/AMH12) VH: QVQLVQSGAEVKKPGASVKVSCKASGYTLTSYGISWVRQAPGQGLEWMGWISTYKGNTNYAQKLQGRVTMTTDTSTSTAYMELRSLRSDDTAVYYCARKQLVFDYWGQGTLVTVSS VL: EIVMTQSPATLSVSPGERATLSCRASQSISSSLAWYQQKPGQAPRLLIYGASTRATGIPARFSGSGSGTEFTLTISSLQSENFAVYYCQQYDNWPLTFGGGTKVEIK | – | 6 | –
7 | AMH14/AML14 (hybridoma) (antibody, V domains shown) VH: QVQLVQSGAEVKKPGASVKVSCKASGYTFTRYGISWVRQAPGQGLEWMGWISTYSGNTNYAQKLQGRVTMTTDTSTSTAYMELRSLRSDDTAVYYCARRQLYFDYWGQGTLVTVSS VL: EIVMTQSPATLSVSPGERATLSCRASQSVSSNLAWFQQKPGQAPRPLIYDASTRATGVPARFSGSGSGTDFTLTISSLQSEDFAVYYCQQYDNWPLTFGGGTKVEIK | – | – | IC50 (read off the curve) (IL-17A-induced GRO-alpha production from HFF cells; blocked ligand m20) [5]: ~0.01 µg/mL
8 | IL-17RA mAb (AMH17/AML17) (antibody, V domains shown, From IgG2 XenoMouse mice; also called AM-17; AML17/AMH17) VH: QVQLVQSGAEVKKPGAAVKVSCKATGYTLTSYGISWVRQAPGQGLEWMGWISAYSGNTKYAQKLQGRVTMTTDTSTSTAYMELRSLRSDDTAVYYCARKQLVFDYWGQGTLVTVSS VL: not shown | – | 8 | –
9 | IL-17RA mAb (AMH15/AML15) (antibody, V domains shown, also called AM-15; AML15/AMH15) VH: QVQLVESGGGVVQPGRSLRLSCAASGFTFSSYGMQWVRQAPGKGLEWVAVIWYDGNKKYYADSVKGRFTISRDNSKNTLYLQMNSLRAEDTAVYYCARGRVRDYYYGMDVWGQGTTVTVSS VL: EIVMTQSPATLSVSPGERVTLSCRASQSVSSNLAWFQQKPGQAPRPLIYDASTRAAGIPARFSGSGSGTDFTLTISSLQSEDFAVYYCQQYDNWPLTFGGGTKVEIK | – | – | MFI [2]: 6
10 | IL-17RA mAb (AMH16/AML16) (antibody, IgG2, V domains shown, From IgG2 XenoMouse mice; also called AM-16; AML16/AMH16) VH: QVQLVQSGAEVKKPGASVKVSCKASGYTFTSYGISWVRQAPGQGLEWMGWISAYNGNTKYAQKLQGRVTMTTDTSTSTVYMELRSLRSDDTAVYYCARKQLVFDYWGQGTLVTVSS VL: EIVMTQSPATLSVSPGERATLSCRASQSISTSLAWYQQKPGQAPRLLIYGTSTRATGIPARFSGSGSGTEFTLTISSLQSEDFAVYFCQQYDIWPLTFGGGTKVEIK | – | 6 | –
11 | IL-17RA human mAb (AMH22/AML22) (antibody, IgG2, V domains shown, Fully human, from IgG2 XenoMouse mice; also called AM-22; AML22/AMH22) VH: QVQLVQSGAEVKKPGASVKVSCKASGYTFTRYGISWVRQAPGQGLEWMGWISAYSGNTNYAQKLQGRVTMTTDTSTSTAYMELRSLRSDDTAVYYCARRQLYFDYWGQGTLVTVSS VL: EIVMTQSPATLSVSPGERVTLSCRASQSVSSNLAWFQQKPGQAPRPLIYDASTRAAGIPARFSGSGSGTDFTLTISSLQSEDFAVYYCQQYDNWPLTFGGGTKVEIK | 18 | – | –
12 | IL-17RA mAb (AMH13/AML13) (antibody, IgG2, V domains shown, From IgG2 XenoMouse mice; also called AM-13; AML13/AMH13) VH: QVQLVESGGGVVQPGRSLRLSCAASGFTFSSYGMQWVRQAPGKGLEWVAVIWYDGNKKYYADSVKGRFTISRDNSKNTLYLQMNSLRAEDTAVYYCARGRVRDYYYGMDVWGQGTTVTVSS VL: DIVMTQTPLSLSVTPGQPASIACKSSQSLLHSDGKTYLYWYLQKPGQPPQLLIYEVSTRFSGVPDRFSGSGSGTDFTLKISRVEAEDVGVFYCMQSIQLPLTFGGGTKVEIK | – | 6 | –
